Results from US20170224780A1 (priority 2014, published 2017).

What was measured:
[1] = tested on: ovaries from 12-day-old neonatal mice; format: cell-based
[2] = tested on: ovaries from 12-day-old neonatal mice; assay: In-vitro culture of whole ovaries incubated with cisplatin with or without AMH, follicle counting; format: cell-based; details: day 4 and day 7 in culture; results not shown
Method: Ovaries from 12-day-old neonatal mice were further incubated with a different chemotherapy agent-cisplatin, with or without AMH. Control ovaries were cultured with medium alone or with AMH. Ovaries were removed after day 4 and day 7 in culture and processed for histological analysis. The number of primordial and growing follicles was counted. Primordial follicle count in the presence of AMH and cisplatin is higher than in the presence of cisplatin alone (results not shown).

[3] = tested on: marmoset ovarian cortical tissues (grafts); assay: Xenotransplantation of frozen-thawed marmoset ovarian cortical strips into castrated SCID mice with rAMH treatment (OTCP-TP model); format: in vivo
Excerpt: Five healthy adult female marmoset monkeys (Callithrix jacchus) at the age range of 13 to 23 months were made available for ovaries excision. Fresh bovine ovaries were collected from lactating milking cows, ages 1.5-3 years (n=12). Ovarian human tissues were harvested from eight donors (age range 13-26 years).
Cortical tissue strips were obtained from marmoset (n=15), bovine (n=15) and human (n=46). The cortical tissue was obtained by removal of the underlying stromal tissue. Slow freezing cryopreservation was performed according to previously published protocols. Briefly, tissue fragments were equilibrated with 0.1M sucrose and 1.5M DMSO for 30 minutes following introduction into the cryopreservation device. A multi-gradient slow freezing protocol cooled the samples to −150° C. following by storage in liquid nitrogen (LN).
Prior to transplantation, tissues were thawed rapidly by equilibrating the samples in decreasing DMSO gradient solutions in 0.1M sucrose and cut into 2×3×2 mm pieces (Marmoset, n=29: n=15 for transplantation experiment and n=14 for transplantation+AMH experiment; Bovine, n=37; Human, n=46). Fresh thawed cortex from each experiment was embedded in […] and further studied.
Seven-weeks-old castrated male immunodeficient mice (n=60) were used as recipient animals. Mice were castrated at 4 weeks and maintained at 28° C. under controlled SPF conditions. Xenotransplantation experiments commenced at least 2-weeks post-orchidectomy.
Ovarian tissue transplantation surgical procedures were performed as described previously. Briefly, a longitudinal incision was made in the dorsum of the anesthetized recipient mouse, the skin was lifted and the ovarian cortical strips were inserted subcutaneously. Size of transplanted tissue from all species was 2×3×2 mm. Each graft was attached in place with a 6-0 non-absorbable prolene suture. Transplanted tissues were recovered after three (3) or seven (7) days.
In a separate experiment, frozen marmoset cortical tissues were thawed, 2×3×2 mm cortical strips were prepared (n=14) and transplanted into castrated SCID mice as described above. rAMH, diluted in PBS, was injected (10 μg in 200 μl, per mouse, i.p.) at the time of transplantation and once daily for 3 consecutive days at 10 μg per mouse, while control mice were injected with PBS. Daily injection protocol was determined according to preliminary experiments using labeled rAMH and rAMH dosage was initially determined according to previous studies.
As the first set of experiments indicated maximal follicle activation and PMF loss in all species (in the absence of AMH) at three days post transplantation, the animals were sacrificed three days post transplantation. The grafts were removed and processed for histological follicle counting analysis and immunohistochemistry.
Recovered grafts and control frozen thawed non transplanted samples were fixed in 4% paraformaldehyde, embedded in paraffin and serial 5 μm sections were prepared from the whole grafts for follicle counts and immunohistochemistry. Follicle classification as primordial or growing was performed on every sixth section of Hematoxylin and Eosin stained sections by two independent observers under a light-microscope (slides/graft: 8 for Marmoset, 9 for Bovine, 6 for Human). Only non-atretic follicles with clearly visible oocyte circled by granulosa-cell layers were referred to in results since no significant difference was found in the number of atretic follicles among the groups. […]

B1: rAMH: Anti-mullerian hormone, protein designated by NCBI Accession No. P03971; recombinant AMH (rAMH) (protein, UniProt P03971 452-560, looked up)
Muellerian-inhibiting factor: SAGATAADGPCALRELSVDLRAERSVLIPETYQANNCQGVCGWPQSDRNPRYGNHVVLLLKMQVRGAALARPPCCVPTAYAGKLLISLSEERISAHHVPNMVATECGCR
[1]
  numbers of primordial follicles, PM together with AMH relative to PM alone: significantly greater numbers
  primordial or growing follicle numbers, AMH alone vs regular media alone: No difference
  ratio of growing to dormant follicles, PM+AMH vs PM alone: significantly improved
[2]
  primordial follicle count, AMH and cisplatin vs cisplatin alone: higher
[3]; grafts three days post transplantation, both transplanted groups had a marked increase vs untransplanted control
  collagen levels (Sirius red staining): no effect
[3]; marmoset grafts three days post transplantation, rAMH 10 μg per mouse i.p. at transplantation and once daily for 3 days, transplanted control 7.66±6.99, untransplanted control 148±37.06, p<0.001
  PMF (primordial follicle) count, mean follicle count per section±SE: 56.33±12.12
[3]; marmoset grafts three days post transplantation, rAMH 10 μg per mouse i.p. daily
  additionally saved PMF compared to transplanted control: 86.40%
[3]; transplanted + rAMH group compared to untransplanted control, ratio significantly increased in transplanted control, FIG. 4B
  GF/PMF ratio (growing to primordial follicles): normalized
[3]; transplanted grafts with vs without rAMH administration
  Ki-67 expressing proliferating cells (immunofluorescence, Z-stack reconstruction): Major reduction
